Reference: patent US20130164251A1 (JIANGSU T MAB BIOPHARMA, published 2013)
Like-named read-outs stand apart in the source and are kept apart here.

B1: human granulocyte-colony stimulating factor (G-CSF) (ligand)
chain: TPLGPASSLPQSFLLKCLEQVRKIQGDGAALQEKLCATYKLCHPEELVLLGHSLGIPWAPLSSCPSQALQLAGCLSQLHSGLFLYQGLLQALEGISPELGPTLDTLQLDVADFATTIWQQMEELGMAPALQPTQGAMPAFASAFQRRAGGVLVASHLQSFLEVSYRVLRHLAQP
notes: also called G-CSF standards

Legend:
Assay in all cases: SPR (Biacore 3000), G-CSFR amine-coupled to CM5 chip, 1:1 Langmuir fit
[1] = target: G-CSF receptor G-CSFR (R & D company, Item No. 381GR/CF) (UniProt Q99062)
[2] = target: T1, G-CSF receptor G-CSFR (R & D company, Item No. 381GR/CF) (UniProt Q99062 25-621, limits assumed)
T1 construct: Bought reagent, amine-coupled to a CM5 chip; also called the receptor
T1 sequence (looked up): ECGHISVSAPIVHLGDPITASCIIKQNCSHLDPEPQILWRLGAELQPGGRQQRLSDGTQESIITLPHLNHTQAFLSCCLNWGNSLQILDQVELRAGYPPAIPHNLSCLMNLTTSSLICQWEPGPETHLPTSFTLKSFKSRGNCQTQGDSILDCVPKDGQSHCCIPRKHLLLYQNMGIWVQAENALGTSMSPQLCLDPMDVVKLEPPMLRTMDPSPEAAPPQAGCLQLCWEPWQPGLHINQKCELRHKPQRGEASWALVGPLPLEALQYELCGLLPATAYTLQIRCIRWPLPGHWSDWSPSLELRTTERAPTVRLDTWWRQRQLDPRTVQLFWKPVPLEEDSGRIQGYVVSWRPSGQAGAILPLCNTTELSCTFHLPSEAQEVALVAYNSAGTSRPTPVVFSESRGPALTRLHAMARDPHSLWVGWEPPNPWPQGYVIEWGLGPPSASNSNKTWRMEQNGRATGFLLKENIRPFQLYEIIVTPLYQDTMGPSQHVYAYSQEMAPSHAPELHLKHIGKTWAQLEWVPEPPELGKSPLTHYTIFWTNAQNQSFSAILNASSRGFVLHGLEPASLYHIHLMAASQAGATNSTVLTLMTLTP
Experimental: (§1) The receptor G-CSFR (R & D company, Item No. 381GR/CF) was coupled to FC₄ cell of a CM5 chip by using an amine coupling method in Biacore® 3000 control software Wizard. HBS-P buffer (10 mM HEPES, 150 mM NaCl, and 0.005% (v/v) surfactant P20, pH 7.4) was used as the working buffer, and 1 mg/mL of G-CSFR was diluted with 10 mM NaAC (pH 4.5) to a final concentration of 20 μg/mL. A 1:1 mixture of 0.2 M EDC and 50 mM NHS was injected by flowing through the surface of the chip at a rate of 10 μL/min, G-CSFR solution was injected, then 1 M ethanolamine (pH 8.5) was injected for 7 min to block the activated chip surface.
(§2) rHSA/mG-CSF and G-CSF standards were quantitatively diluted with a HBS-P buffer, and a kinetic test was conducted following a kinetic analysis Wizard in Biacore® 3000 control software. All the samples were injected at the flow rate of 30 μL/min, and the injection time of 3 min. After 5 min of disassociation, 50 mM NaOH, 1 M NaCL, and HBS-P buffer were respectively injected for 15 s and 60 s at a flow rate of 100 μL/min for regeneration. The obtained data was fitted using a 1:1 Langmuir binding model in Biacore 3000 analysis software, to obtain exact kinetic constants: […]

[3] = target: T1, G-CSF receptor G-CSFR (R & D company, …); remark: listed apart in the source
Experimental: as §1, §2

Molecule	Kd [1] [nM]	Kd [2] [nM]	Kd [3] [nM]
rHSA/G-CSF mutant L19I (from UniProt P09919 31-207) (ligand)	11.2		
recombinant human serum albumin-granulocyte-colony stimulating factor fusion protein (rHSA/G-CSF) (ligand)	1.3		
B1		0.3	0.3
